Target: T1, human LAG3 (Lymphocyte Activation Gene-3) expressed on cells (human, UniProt P18627 23-525)
T1 sequence: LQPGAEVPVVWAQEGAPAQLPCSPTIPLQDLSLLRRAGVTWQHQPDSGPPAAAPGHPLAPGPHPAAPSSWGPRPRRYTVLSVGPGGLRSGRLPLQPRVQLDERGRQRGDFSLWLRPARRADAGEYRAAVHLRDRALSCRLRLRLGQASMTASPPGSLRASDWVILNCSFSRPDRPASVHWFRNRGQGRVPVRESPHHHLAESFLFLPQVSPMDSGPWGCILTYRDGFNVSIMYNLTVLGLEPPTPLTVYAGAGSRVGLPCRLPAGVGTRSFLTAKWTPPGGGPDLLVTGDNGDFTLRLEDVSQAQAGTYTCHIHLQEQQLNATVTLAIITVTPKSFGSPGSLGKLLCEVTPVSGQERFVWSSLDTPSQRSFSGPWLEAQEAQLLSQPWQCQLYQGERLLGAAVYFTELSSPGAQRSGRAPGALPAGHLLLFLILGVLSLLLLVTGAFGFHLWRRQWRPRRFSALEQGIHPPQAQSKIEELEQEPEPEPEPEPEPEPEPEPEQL
Assay: cell-based or functional assay

B1: Ab6: humanized light chain 45AGX Humanized x[LAG3_H] mAb (LB145.22D2.E1.D1 (VL3)) Kappa (PX) and humanized heavy chain 73AHD Humanized x[LAG3_H] mAb … (antibody)
heavy: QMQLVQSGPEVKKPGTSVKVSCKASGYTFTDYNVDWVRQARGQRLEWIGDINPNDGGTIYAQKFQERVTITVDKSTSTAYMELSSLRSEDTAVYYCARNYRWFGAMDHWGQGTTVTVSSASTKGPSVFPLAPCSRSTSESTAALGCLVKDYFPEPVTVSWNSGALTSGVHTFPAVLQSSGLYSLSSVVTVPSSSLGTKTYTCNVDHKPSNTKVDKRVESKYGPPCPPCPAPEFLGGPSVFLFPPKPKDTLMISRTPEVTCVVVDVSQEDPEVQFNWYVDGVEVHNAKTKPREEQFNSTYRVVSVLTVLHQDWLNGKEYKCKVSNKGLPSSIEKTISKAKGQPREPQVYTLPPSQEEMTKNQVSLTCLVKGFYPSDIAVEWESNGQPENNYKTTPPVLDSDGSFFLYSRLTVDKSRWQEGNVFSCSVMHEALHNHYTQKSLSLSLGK
light: DIVMTQTPLSLSVTPGQPASISCKASQSLDYEGDSDMNWYLQKPGQPPQLLIYGASNLESGVPDRFSGSGSGTDFTLKISRVEAEDVGVYYCQQSTEDPRTFGGGTKVEIKRTVAAPSVFIFPPSDEQLKSGTASVVCLLNNFYPREAKVQWKVDNALQSGNSQESVTEQDSKDSTYSLSSTLTLSKADYEKHKVYACEVTHQGLSSPVTKSFNRGEC
notes: Humanized 22D2 N55D, IgG4 S228P/kappa; also called Hu22D2 VH6/VL3 N55D (Ab 6); hu22D2 VH6/VL3 N55D
  IL-2 production by SEB-stimulated PBMC in combination with anti-PD1, fold over anti-PD-1 alone plus isotype control: 1.45 fold
  IL-2 production by SEB-stimulated PBMC, fold over isotype control: 1.54 fold

— patent US20190083615A1 (Merck Sharp & Dohme, published 2019)
